Measured values taken from patent US20230391828A1, “REGULATORS OF CELL DIVISION” (TECHNISCHE UNIVERSITÄT DRESDEN, priority 2020, published 2023).
“Also recorded” adds a separate entry of the source. Bridge positions count the residues as written; N and C are the ends. Square brackets hold non-standard residues; d marks the D form. 2Nal = N[C@@H](Cc1ccc2ccccc2c1)C(=O)O; R8 = C=CCCCCCC[C@@](C)(N)C(=O)O; S5 = C=CCCC[C@](C)(N)C(=O)O; Pra = C#CC[C@H](N)C(=O)O

Assays:
[1] = molecular target: T1, APC/C (APC11) (Homo sapiens, UniProt Q9NYG5); experiment: Pull-down binding assay in HeLa K cell extract, APC/C; conditions: Pra peptide clicked to azide agarose or magnetic beads, Western blot
T1 construct: endogenous in cells; host or cells: HeLa K cell extract
Protocol: (§1) For the protein transfer, the 0.45 μm Immobilon-FL PVDF membrane (Merck Millipore) was used. The membrane was activated in ethanol and then transferred to the Blotting buffer (50 mM SDS-MOPS, 50 mM Tris base, 0.1% SDS, 1 mM EDTA, 20% EtOH). The proteins were transferred using a wet transfer for 1.5 h at 400 mA. Subsequently, the membrane was incubated with the blocking solution, 10% milk in PBS-T (0.02% Tween-20 in PBS), for 1 h at room temperature. To detect proteins of the interest, the membrane was incubated with primary antibodies overnight at 4° C. Followed by washing the membrane 3 times 10 min with PBS-T and incubation with IRDye fluorescently labelled secondary antibodies for 1 h. Prior detection, the membrane was twice washed with PBS-T for 10 min and once with PBS for 10 min. The detection was done using the quantitative near-infrared scanning system Odyssey (LI-COR Biosciences).
HeLa K cell pellet was re-suspended in the extraction buffer (30 mM HEPES pH 7.5, 175 mM NaCl, 2.5 mM MgCl2, 0.25% NP40, 10% glycerol, 1 mM DTT) supplemented with 10 μM MG132 (VWR), 1 mM PMSF (Sigma-Aldrich), complete protease inhibitor cocktail (Roche) and PhosSTOP phosphatase inhibitors (Roche) and incubated for 20 min on ice, followed by centrifugation of cell debris for 15 min at 4° C. 16 100 g. In mean time, inhibitor molecules containing Propargyl (Pra) chemical group were covalently attached to the azide agarose or azide magnetic resin (Jena Bioscience) by Cu(I)-catalysed azide-alkyne cycloaddition reaction. Specifically, the inhibitor molecules were mixed with azide agarose resin in ratio 0.125 μmol inhibitor/25 μl agarose resin and azide magnetic resin in ratio 0.018 μmol inhibitor/20 μl magnetic resin. The reaction was catalysed by 1 mM CuSO4, 0.1 mM TBTA (Sigma-Aldrich) and 1 mM Sodium ascorbate and was performed on the rotating wheel for 30 min at room temperature in the volume of 1 ml. Subsequently, the resin was washed 5 times with the extraction buffer. The inhibitor-agarose resin was added to 1 mg of HeLa K cell extract and the inhibitor-magnetic resin was added to 0.5 mg of HeLa K cell extract followed by incubation at 4° C. for 2 h. Followed by washing the resin 5 times with the extraction buffer. Pull-down proteins were eluted by boiling for 15 min with 1×LDS sample buffer supplemented with 100 mM DTT (agarose resin) or by incubation with 1×LDS sample buffer for 10 min at room temperature followed by taking supernatant that was supplemented with 100 mM DTT and boiling it for 10 min. Samples were subjected to SDS PAGE and Western blot analysis.
HeLa K cell pellet was re-suspended in the extraction buffer (30 mM HEPES pH 7.5, 175 mM NaCl, 2.5 mM MgCl2, 0.25% NP40, 10% glycerol, 1 mM DTT supplied with complete protease inhibitor cocktail (Roche), PhosSTOP phosphatase inhibitors (Roche), 1 mM PMSF, 10 μM MG132) and incubated for 20 min on ice, followed by centrifugation to clear the lysate for 15 min at 4° C. 16,100 g. In the meantime, inhibitor molecules containing the propargyl-Gly-OH (Pra) chemical group were covalently attached to the azide agarose resin (Jena Bioscience) by Cu(I)-catalysed azide-alkyne cycloaddition reaction. Specifically, the inhibitor molecules were mixed with azide agarose resin in ratio 0.125 μmol inhibitor/20 μl agarose resin. The reaction was catalysed by 0.1 mM CuSO4, 0.5 mM THPTA (Sigma-Aldrich) and 5 mM Sodium ascorbate and was performed on the rotating wheel for 30 min at room temperature in the volume of 1 ml. […]

[2] = molecular target: T2, Cullin 1 (Homo sapiens, UniProt Q13616); experiment: Pull-down binding assay in HeLa K cell extract, Cullin 1; conditions: azide beads, Western blot
T2 construct: endogenous in cells; host or cells: HeLa K cell extract
Protocol: as §1
(§2) HeLa K cell pellet was re-suspended in the extraction buffer (30 mM HEPES pH 7.5, 175 mM NaCl, 2.5 mM MgCl2, 0.25% NP40, 10% glycerol, 1 mM DTT) supplemented with 10 μM MG132 (VWR), 1 mM PMSF (Sigma-Aldrich), complete protease inhibitor cocktail (Roche) and PhosSTOP phosphatase inhibitors (Roche) and incubated for 20 min on ice, followed by centrifugation of cell debris for 15 min at 4° C. 16 100 g. […]

[3] = molecular target: T3, RBX1 (Homo sapiens, UniProt P62877); experiment: Pull-down binding assay in HeLa K cell extract, RBX1; conditions: azide beads, Western blot
T3 construct: endogenous in cells; host or cells: HeLa K cell extract
Protocol: as §1, §2

[4] = molecular target: T4, APC/C (Homo sapiens, UniProt Q9NYG5); experiment: In vitro APC/C ubiquitination assay driven by the E2 enzyme UBE2C, fluorophore-labelled securin substrate; format: biochemical; conditions: 100 μM, UBE2C, reaction time 45 min
T4 construct: made in house; host or cells: SF9 insect cells (baculovirus)
Protocol: Proteins were separated by SDS-PAGE electrophoresis using precast Bolt 4-12% Bis-Tris Plus protein gels (Thermo Fisher Scientific) and Criterion XT Bis-Tris Midi Protein Gels (Bio-Rad). In different experiments, various conditions were used: in vitro APC/C ubiquitination assays—165 V, 40 min, SDS-MES running buffer (50 mM MES, 50 mM Tris base, 0.1% SDS, 1 mM EDTA, pH 7.3; Thermo Fisher Scientific); in vitro APC/C ubiquitination assays determining KM—165V, 1 h, SDS-MOPS running buffer (50 mM MOPS, 50 mM Tris base, 0.1% SDS, 1 mM EDTA, pH 7.7; Thermo Fisher Scientific); pull-down binding assay—165 V, 35 min, SDS-MES running buffer.
APC/C-dependent ubiquitination reactions were performed at 30° C. in 30 mM HEPES pH 7.4, 175 mM NaCl, 8 mM MgCl2, 0.05% Tween-20, 1 mM DTT and 5% glycerol and contained 20 nM recombinant APC/C (note, for testing the first generation of inhibitors, APC/C and Cdc20 immunoprecipitated from mitotic HeLa K cells was used), 340 nM Cdc20, 46 nM GST-UBA1, 340 nM UBE2C (alternatively 400 nM UBE2D1, 280 nM UBE2S), 21 μM His6-ubiquitin or if it is indicated 21 μM methylated-ubiquitin (BostonBiochem), 2.6 mM ATP, 10 mM phosphocreatine and 11 μM creatine kinase. As substrates, 35 nM fluorophore-labeled ubiquitin-cyclin B and 50 nM fluorophore-labeled securin were standardly used (fluorophore IRDye 800CW (LI-COR) was used for labelling). In case of KM and kcat determination, 50, 100, 250, 500, 750, 1000, 1250, 2500 and 5000 nM fluorophore-labelled securin was used. The reaction was done in the volume of 15 μl, it was quenched after the indicated time with LDS sample buffer (Thermo Fisher Scientific) supplemented with 100 mM DTT and subjected to SDS-PAGE. Detection of fluorescently labelled substrates was done by quantitative near-infrared scanning system Odyssey.

[5] = system: hTERT RPE-1 cells; experiment: Live cell imaging of hTERT RPE-1 cells; format: cell-based; conditions: hTERT RPE-1, 100 μM, imaged 12-24 h
Protocol: Automated time-lapse microscopy was performed using ImageXpress Micro XLS wide-field screening microscope (Molecular Devices) equipped with a 10×, 0.5 NA., 20×, 0.7 NA, and 40×, 0.95 NA Plan Apo air objectives (Nikon), a laser-based autofocus and a full environmental control (5% CO2, 37° C.). Cells were grown in 96-well plastic bottom plates (clear, Greiner Bio-One) and for live cell imaging media was changed to DMEM without phenol red and riboflavin (Thermo Fisher Scientific), supplemented with 10% (v/v) FBS, 1% (v/v) Glutamax, 1% (v/v) penicillin-streptomycin, and 0.5 μg/ml amphotericin B.
hTERT RPE-1 cells were seeded into 96-well plates (5000 cells) one day prior the treatment with compounds of the invention. Cells were treated with 100 μM of compound G2-6 and the negative control molecule G2-N2 and cell division was monitored by live cell imaging using ImageXpress Micro XLS wide-field screening microscope, images were acquired every 3 min for time courses of 12-24 h. The length of mitosis was determined manually.

T2 sequence (Q13616 whole entry): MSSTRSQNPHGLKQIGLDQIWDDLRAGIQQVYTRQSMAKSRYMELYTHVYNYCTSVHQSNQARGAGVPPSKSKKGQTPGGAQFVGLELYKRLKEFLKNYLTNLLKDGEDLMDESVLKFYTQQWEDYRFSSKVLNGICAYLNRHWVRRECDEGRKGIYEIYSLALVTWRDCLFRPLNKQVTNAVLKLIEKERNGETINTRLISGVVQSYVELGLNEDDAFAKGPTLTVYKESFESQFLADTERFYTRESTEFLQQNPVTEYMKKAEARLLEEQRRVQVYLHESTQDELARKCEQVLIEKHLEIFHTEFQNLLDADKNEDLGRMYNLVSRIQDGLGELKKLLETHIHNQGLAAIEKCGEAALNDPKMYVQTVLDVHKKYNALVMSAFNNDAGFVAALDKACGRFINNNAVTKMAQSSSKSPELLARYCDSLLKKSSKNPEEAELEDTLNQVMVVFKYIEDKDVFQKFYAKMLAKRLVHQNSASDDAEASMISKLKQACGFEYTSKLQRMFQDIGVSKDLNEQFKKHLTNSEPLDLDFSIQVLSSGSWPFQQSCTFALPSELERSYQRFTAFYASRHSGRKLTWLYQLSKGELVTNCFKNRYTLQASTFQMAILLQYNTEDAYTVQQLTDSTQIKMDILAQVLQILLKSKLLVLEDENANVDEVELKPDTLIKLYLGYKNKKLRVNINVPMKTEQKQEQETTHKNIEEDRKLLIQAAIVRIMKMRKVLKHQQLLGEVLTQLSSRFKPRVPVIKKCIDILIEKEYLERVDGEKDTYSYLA
T3 sequence (P62877 whole entry): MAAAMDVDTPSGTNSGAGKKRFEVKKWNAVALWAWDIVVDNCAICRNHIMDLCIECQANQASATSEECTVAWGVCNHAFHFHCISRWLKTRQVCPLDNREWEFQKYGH

| binding to the APC/C (pull-down) [1] | binding to Cullin 1 (pull-down) [2] | binding to RBX1 (pull-down) [3] | Substance | inhibition of APC/C activity in vitro (ubiquitinated securin) [4] | cell fate (cell death) [5] | effect on mitosis (length of mitosis) [5] | inhibition of APC/C activity in vitro compared with TAME ([4]; 3 independent assays) |
| --- | --- | --- | --- | --- | --- | --- | --- |
| binds to the APC/C | does not bind | does not bind | Ac-cyclo(4,11)-EWPraZIKEIQRXRRA-NH2 (Ac-EW[Pra][R8]IKEIQR[S5]RRA-NH2; staple 4-11; SMILES C#CC[C@H](NC(=O)[C@H](Cc1c[nH]c2ccccc12)NC(=O)[C@H](CCC(=O)O)NC(C)=O)C(=O)N[C@]1(C)CCCCCCC=CCCC[C@@](C)(C(=O)N[C@@H](CCCNC(=N)N)C(=O)N[C@@H](CCCNC(=N)N)C(=O)N[C@@H](C)C(N)=O)NC(=O)[C@H](CCCNC(=N)N)NC(=O)[C@H](CCC(N)=O)NC(=O)[C@H]([C@@H](C)CC)NC(=O)[C@H](CCC(=O)O)NC(=O)[C@H](CCCCN)NC(=O)[C@H]([C@@H](C)CC)NC1=O) [G3-6Pra] | – | – | – | – |
| – | – | – | cyclo(1,14)-[L 2-NaI L W K W E W E K R K p P] (cyclo(L[2Nal]LWKWEWEKRK[dP]P); SMILES CC(C)C[C@@H]1NC(=O)[C@H](Cc2ccc3ccccc3c2)NC(=O)[C@H](CC(C)C)NC(=O)[C@@H]2CCCN2C(=O)[C@H]2CCCN2C(=O)[C@H](CCCCN)NC(=O)[C@H](CCCNC(=N)N)NC(=O)[C@H](CCCCN)NC(=O)[C@H](CCC(=O)O)NC(=O)[C@H](Cc2c[nH]c3ccccc23)NC(=O)[C@H](CCC(=O)O)NC(=O)[C@H](Cc2c[nH]c3ccccc23)NC(=O)[C@H](CCCCN)NC(=O)[C@H](Cc2c[nH]c3ccccc23)NC1=O) [G2-6] | the most potent molecule from item (f); also recorded: inhibit APC/C in vitro the most effectively compared to other molecules of item (f) | causes cell death; also recorded: mitotic or subsequent cell death | prolongs mitosis; also recorded: causes prolonged mitosis | – |
| binds to the APC/C (APC2 and APC11) | almost does not bind | – | Ac-cyclo(5,9)-RWPPraXKWDXQVRRW-NH2 (Ac-RWP[Pra][S5]KWD[S5]QVRRW-NH2; staple 5-9; SMILES C#CC[C@H](NC(=O)[C@@H]1CCCN1C(=O)[C@H](Cc1c[nH]c2ccccc12)NC(=O)[C@H](CCCNC(=N)N)NC(C)=O)C(=O)N[C@@]1(C)CCCC=CCCC[C@@](C)(C(=O)N[C@@H](CCC(N)=O)C(=O)N[C@H](C(=O)N[C@@H](CCCNC(=N)N)C(=O)N[C@@H](CCCNC(=N)N)C(=O)N[C@@H](Cc2c[nH]c3ccccc23)C(N)=O)C(C)C)NC(=O)[C@H](CC(=O)O)NC(=O)[C@H](Cc2c[nH]c3ccccc23)NC(=O)[C@H](CCCCN)NC1=O) [G3-1Pra] | – | – | – | – |
| binds specifically to the APC/C | – | – | Ac-cyclo(5,9)-RWPQXKWDXQVRRW-NH2 (Ac-RWPQ[S5]KWD[S5]QVRRW-NH2; staple 5-9; SMILES CC(=O)N[C@@H](CCCNC(=N)N)C(=O)N[C@@H](Cc1c[nH]c2ccccc12)C(=O)N1CCC[C@H]1C(=O)N[C@@H](CCC(N)=O)C(=O)N[C@@]1(C)CCCC=CCCC[C@@](C)(C(=O)N[C@@H](CCC(N)=O)C(=O)N[C@H](C(=O)N[C@@H](CCCNC(=N)N)C(=O)N[C@@H](CCCNC(=N)N)C(=O)N[C@@H](Cc2c[nH]c3ccccc23)C(N)=O)C(C)C)NC(=O)[C@H](CC(=O)O)NC(=O)[C@H](Cc2c[nH]c3ccccc23)NC(=O)[C@H](CCCCN)NC1=O) [G3-1] | – | – | – | inhibit APC/C in vitro more efficiently than TAME |
